Laboratory results as given in patent US7972827B2, “Photoswitchable method for the ordered attachment of proteins to surfaces” (Lawrence Livermore National Security, LLC, priority 2003, dated 2011).

Target: T1, MBP-N-intein fusion protein (Synechocystis sp., UniProt P74750)
T1 construct: made in house; host or cells: E. coli BL21(DE3)pLysS+
Experiment: in solution trans-splicing activity of photocaged C-intein polypeptides with MBP-N-intein fusion protein
Assay type: biochemical, Synechocystis sp. PCC6803
Details: for trans-splicing activity relative to the non-photocaged C-intein polypeptide: % of the trans-splicing activity of the non-photocaged C-intein polypeptide, SDS-PAGE analysis
Method: In-vitro protein trans-splicing was characterized as follows. Each purified C-intein polypeptide was combined with MBP-N-intein fusion protein in splicing buffer (0.5 mM EDTA, 1 mM TCEP, 50 mM sodium phosphate, 150-500 mM NaCl at pH 7). The concentration of the two proteins was typically in the range 0.1-200 μM. The mixture was allowed to react at 4° C. for 12-16 h. The reaction was then quenched by dilution into SDS-PAGE loading buffer containing 20% v/v 2-mercaptoethanol before the SDS-PAGE analysis. The spliced product was purified using HPLC and characterized by ES-MS as the trans-spliced product. The expected mass (average isotopic composition)=43988.0 Da; measured mass=43986±10 Da.
The in solution trans-splicing activity of each photocaged C-intein polypeptide was assayed using the MBP-N-intein fusion protein expressed as described above.

Substance | trans-splicing activity relative to the non-photocaged C-intein polypeptide | ability to promote trans-splicing (in words) (with MBP-N-intein fusion protein, data not shown)
C-intein polypeptide with caged Gly6: DnaE C-intein polypeptide SEQ ID NO:6 with PEGylated thiol linker, photocaged (nitroveratryl) at Gly6 | about 30% | –
C-intein polypeptide with two caged residues, Gly19 and Gly31: DnaE C-intein polypeptide SEQ ID NO:6 with PEGylated thiol linker, photocaged (nitroveratryl) at both Gly19 and Gly31 | – | completely prevent trans-splicing activity
C-intein polypeptide with caged Gly11: DnaE C-intein polypeptide SEQ ID NO:6 with PEGylated thiol linker, photocaged (nitroveratryl) at Gly11 | around 60% | –
C-intein polypeptide with caged Gly19: DnaE C-intein polypeptide SEQ ID NO:6 with PEGylated thiol linker, photocaged (nitroveratryl) at Gly19 | about 30% | –
